Like-named read-outs stand apart in the source and are kept apart here.
Key:
[1] = in vivo
[2] = rat, in vivo
Protocol: Pharmacokinetic analysis was conducted in Female rats weighing 220-250 grams for 2 days. Rats in the oral treatment group was fasted overnight prior to the test sample administration. All the test animals in the treatment groups were administered with respective test formulation to the pre-designated animals. The animal was restrained and its head was held vertically, the jaws were pulled away, the tongue was gently lifted with a forceps followed by placement of a polypeptide formulation as described herein buccally/sublingually. After placing a polypeptide formulation as described herein, the snout was held together for about 1-2 mins to prevent the chewing of the polypeptide formulation. The time of dosage of each animal was noted. Blood samples were collected at aforementioned time points 0 min, 15 min, 30 min, 1 hour, 2 hours, 4 hours, 8 hours, 12 hours, 24 hours, and 48 hours into an EDTA-blood collection tubes for the separation of plasma to determine insulin levels by ELISA. Plasma samples collected at different time points were analyzed by ELISA kit according to ABBEXA protocol. This kit is based on sandwich enzyme-linked immuno-sorbent assay technology. An antibody, anti-insulin was pre-coated onto a 96-well plate. Standards, test samples, and biotin-conjugated reagent were added to the wells and incubated. The HRP-conjugated reagent was then added, and the whole plate was incubated. Unbound conjugates were removed using wash buffer at each stage. TMB substrate was used to quantify the HRP enzymatic reaction. After TMB substrate was added, only wells that contain sufficient INS will produce a blue colored product, which then changes to yellow after adding the acidic stop solution. The intensity of the yellow color is proportional to the INS amount bound on the plate. The Optical Density (OD) was measured spectrophotometrically at 450 nm in a microplate reader, from which the concentration of INS can be calculated.
Insulin was analyzed in plasma using a specific enzyme linked immunosorbent assay (ELISA). Pharmacokinetic endpoints were determined using noncompartmental methods using PK Solutions software. AUC was approximated using the trapezoidal rule on the observed concentrations. C max for each Insulin dose was derived as the maximum of all valid concentrations, and t max was then determined as the corresponding time point to C max. The terminal elimination rate constant (λz) was estimated by log-linear regression on the terminal part of the concentration-time curve, and t ½ was then calculated as t½=ln 2/λz.

[3] = minipig, in vivo
Protocol: Pharmacokinetic analysis was conducted in Female Minipigs weighing 12±1 kg for 2 days. Pigs in the treatment group were fasted overnight prior to the test sample administration. All the test animals in the treatment groups were administered with respective test formulation to the pre-designated animals. The animal was restrained and its head was held vertically, the jaws were pulled away, the tongue was gently lifted with a forceps followed by placement of a polypeptide formulation as described herein buccally/sublingually. After placing a polypeptide formulation as described herein, the snout was held together for about 1-2 mins to prevent the chewing of the polypeptide formulation. The time of dosage of each animal was noted. Blood samples were collected at aforementioned time points 0 min, 15 min, 30 min, 1 hour, 2 hours, 4 hours, 8 hours, 12 hours, 24 hours, and 48 hours into an EDTA-blood collection tubes for the separation of plasma to determine insulin levels by ELISA. Plasma samples collected at different time points were analyzed by ELISA kit according to ABBEXA protocol. This kit is based on sandwich enzyme-linked immuno-sorbent assay technology. An antibody, anti-insulin was pre-coated onto a 96-well plate. Standards, test samples, and biotin-conjugated reagent were added to the wells and incubated. The HRP-conjugated reagent was then added, and the whole plate was incubated. Unbound conjugates were removed using wash buffer at each stage. TMB substrate was used to quantify the HRP enzymatic reaction. After TMB substrate was added, only wells that contain sufficient INS will produce a blue colored product, which then changes to yellow after adding the acidic stop solution. The intensity of the yellow color is proportional to the INS amount bound on the plate. The Optical Density (OD) was measured spectrophotometrically at 450 nm in a microplate reader, from which the concentration of INS can be calculated.
Insulin was analyzed in plasma using a specific enzyme linked immunosorbent assay (ELISA). Pharmacokinetic endpoints were determined using noncompartmental methods using PK Solutions software. AUC was approximated using the trapezoidal rule on the observed concentrations. C max for each Insulin dose was derived as the maximum of all valid concentrations, and t max was then determined as the corresponding time point to C max. The terminal elimination rate constant (λz) was estimated by log-linear regression on the terminal part of the concentration-time curve, and t ½ was then calculated as t ½=ln 2/λz.

[4] = Pharmacokinetics of hGH in minipigs, sugar truffle buccal/sublingual vs intravenous, plasma hGH ELISA; type: in vivo; conditions: for Mean hGH levels: pigs, plasma
Protocol: Pharmacokinetic analysis was conducted in Female Minipigs weighing 12±1 kg for 2 days. Pigs in the oral treatment group was either fasted overnight or fed prior to the test sample administration. All the test animals in the treatment groups were administered with respective test formulation to the pre-designated animals. The animal was restrained and its head was held vertically, the jaws were pulled away, the tongue was gently lifted with a forceps followed by placement of a polypeptide formulation as described herein buccally/sublingually. After placing a polypeptide formulation as described herein, the snout was held together for about 1-2 mins to prevent the chewing of the polypeptide formulation. The time of dosage of each animal was noted. […] Plasma samples collected at different time points were analyzed by ELISA kit according to Creative Diagnostics protocol. This kit is based on sandwich enzyme-linked immuno-sorbent assay technology. […] Standards, test samples, and biotin-conjugated reagent were added to the wells and incubated. The HRP-conjugated reagent was then added, and the whole plate was incubated. Unbound conjugates were removed using wash buffer at each stage. TMB substrate was used to quantify the HRP enzymatic reaction.
Pharmacokinetic endpoints were determined using noncompartmental methods using PK Solutions software. AUC was approximated using the trapezoidal rule on the observed concentrations. […] The terminal elimination rate constant (λz) was estimated by log-linear regression on the terminal part of the concentration-time curve, and t ½ was then calculated as t ½=ln 2/X z.

[5] = minipigs, buccal/sublingual hGH formulation
[6] = minipigs, intravenous hGH formulation

Substance: Human Insulin R: peptide/protein hormone structurally identical to human insulin synthesized through rDNA technology; SC marketed liquid or lyophilized microparticles in sugar truffle shell
- bioavailability when compared to SC or IV administration [1]: greater than 7%
- AUC 0-inf/D_obs ([2]; 0.52 mg): 4373.827 mU/L*h/(mg)
- AUC 0-inf/D_pred ([2]; 0.52 mg): 4364.913 mU/L*h/(mg)
- AUC 0-inf_obs ([2]; 0.52 mg): 2274.390 mU/L*h
- AUC 0-inf_pred ([2]; 0.52 mg): 2269.755 mU/L*h
- AUC 0-t ([2]; 0.52 mg): 2204.699 mU/L*h
- AUC t-inf_obs ([2]; 0.52 mg): 69.691 mU/L*h
- AUC t-inf_pred ([2]; 0.52 mg): 65.056 mU/L*h
- Cl/F_obs ([2]; 0.52 mg): 0.000 (mg)/(mU/L)/h
- Cl/F_pred ([2]; 0.52 mg): 0.000 (mg)/(mU/L)/h
- Cmax ([2]; 0.52 mg): 331.520 mU/L
- MRT 0-inf_obs ([2]; 0.52 mg): 11.202 h
- MRT 0-inf_pred ([2]; 0.52 mg): 11.097 h
- MRT 0-t ([2]; 0.52 mg): 9.580 h
- Tmax ([2]; 0.52 mg): 0.250 h
- Vz/F_obs ([2]; 0.52 mg): 0.003 (mg)/(mU/L)
- Vz/F_pred ([2]; 0.52 mg): 0.003 (mg)/(mU/L)
- t½ ([2]; 0.52 mg): 10.064 h
- AUC 0-inf/D_obs ([2]; sc, 0.087 mg): 6997.06 mU/L*h/(mg)
- AUC 0-inf/D_pred ([2]; sc, 0.087 mg): 6935.40 mU/L*h/(mg)
- AUC 0-inf_obs ([2]; sc, 0.087 mg): 2427.98 mU/L*h
- AUC 0-inf_pred ([2]; sc, 0.087 mg): 2406.58 mU/L*h
- AUC 0-t ([2]; sc, 0.087 mg): 2382.00 mU/L*h
- AUC t-inf_obs ([2]; sc, 0.087 mg): 45.98 mU/L*h
- AUC t-inf_pred ([2]; sc, 0.087 mg): 24.58 mU/L*h
- Cl/F_obs ([2]; sc, 0.087 mg): 0.00 (mg)/(mU/L)/h
- Cl/F_pred ([2]; sc, 0.087 mg): 0.00 (mg)/(mU/L)/h
- Cmax ([2]; sc, 0.087 mg): 332.03 mU/L
- MRT 0-inf_obs ([2]; sc, 0.087 mg): 8.70 h
- MRT 0-inf_pred ([2]; sc, 0.087 mg): 8.26 h
- MRT 0-t ([2]; sc, 0.087 mg): 7.74 h
- Tmax ([2]; sc, 0.087 mg): 0.50 h
- Vz/F_obs ([2]; sc, 0.087 mg): 0.00 (mg)/(mU/L)
- Vz/F_pred ([2]; sc, 0.087 mg): 0.00 (mg)/(mU/L)
- t½ ([2]; sc, 0.087 mg): 7.21 h
- AUC 0-inf/D_obs ([3]; 2.08 mg): 7418.052 mU/L*h/(mg)
- AUC 0-inf/D_pred ([3]; 2.08 mg): 7439.299 mU/L*h/(mg)
- AUC 0-inf_obs ([3]; 2.08 mg): 2574.064 mU/L*h
- AUC 0-inf_pred ([3]; 2.08 mg): 2581.437 mU/L*h
- AUC 0-t ([3]; 2.08 mg): 2511.461 mU/L*h
- AUC t-inf_obs ([3]; 2.08 mg): 62.603 mU/L*h
- AUC t-inf_pred ([3]; 2.08 mg): 69.975 mU/L*h
- Cl/F_obs ([3]; 2.08 mg): 0.000 (mg)/(mU/L)/h
- Cl/F_pred ([3]; 2.08 mg): 0.000 (mg)/(mU/L)/h
- Cmax ([3]; 2.08 mg): 330.950 mU/L
- MRT 0-inf_obs ([3]; 2.08 mg): 11.492 h
- MRT 0-inf_pred ([3]; 2.08 mg): 11.639 h
- MRT 0-t ([3]; 2.08 mg): 10.214 h
- Tmax ([3]; 2.08 mg): 0.500 h
- Vz/F_obs ([3]; 2.08 mg): 0.002 (mg)/(mU/L)
- Vz/F_pred ([3]; 2.08 mg): 0.002 (mg)/(mU/L)
- t½ ([3]; 2.08 mg): 10.234 h
- AUC 0-inf/D_obs ([3]; sc, 0.347 mg): 3483.581 mU/L*h/(mg)
- AUC 0-inf/D_pred ([3]; sc, 0.347 mg): 3434.617 mU/L*h/(mg)
- AUC 0-inf_obs ([3]; sc, 0.347 mg): 1208.803 mU/L*h
- AUC 0-inf_pred ([3]; sc, 0.347 mg): 1191.812 mU/L*h
- AUC 0-t ([3]; sc, 0.347 mg): 1101.784 mU/L*h
- AUC t-inf_obs ([3]; sc, 0.347 mg): 107.019 mU/L*h
- AUC t-inf_pred ([3]; sc, 0.347 mg): 90.028 mU/L*h
- Cl/F_obs ([3]; sc, 0.347 mg): 0.000 (mg)/(mU/L)/h
- Cl/F_pred ([3]; sc, 0.347 mg): 0.000 (mg)/(mU/L)/h
- Cmax ([3]; sc, 0.347 mg): 316.870 mU/L
- MRT 0-inf_obs ([3]; sc, 0.347 mg): 13.028 h
- MRT 0-inf_pred ([3]; sc, 0.347 mg): 12.134 h
- MRT 0-t ([3]; sc, 0.347 mg): 6.938 h
- Tmax ([3]; sc, 0.347 mg): 2.000 h
- Vz/F_obs ([3]; sc, 0.347 mg): 0.008 (mg)/(mU/L)
- Vz/F_pred ([3]; sc, 0.347 mg): 0.008 (mg)/(mU/L)
- t½ ([3]; sc, 0.347 mg): 19.218 h

Substance: hGH: human growth hormone (human recombinant), Norditropin NordiFlex; lyophilized microparticles in sugar truffle shell
- AUC 0-inf/D_obs [4, 5]: 49506.598 pg·h/mL/mg
- AUC 0-inf/D_pred [4, 5]: 49536.628 pg·h/mL/mg
- AUC 0-inf_obs [4, 5]: 123.766495 ng·h/mL
- AUC 0-inf_pred [4, 5]: 123.84157 ng·h/mL
- AUC 0-t [4, 5]: 118.956091 ng·h/mL
- AUC t-inf_obs [4, 5]: 4.810404 ng·h/mL
- AUC t-inf_pred [4, 5]: 4.885479 ng·h/mL
- AUMC 0-inf_obs [4, 5]: 1203569.518 pg/ml*h^2
- AUMC 0-inf_pred [4, 5]: 1208579.228 pg/ml*h^2
- AUMC 0-t [4, 5]: 882575.168 pg/ml*h^2
- AUMC t-inf_obs [4, 5]: 320994.350 pg/ml*h^2
- AUMC t-inf_pred [4, 5]: 326004.060 pg/ml*h^2
- Cl/F_obs [4, 5]: 0.000 (mg)/(pg/ml)/h
- Cl/F_pred [4, 5]: 0.000 (mg)/(pg/ml)/h
- Clast_obs [4, 5]: 0.25684 ng/mL
- Clast_pred [4, 5]: 0.260848 ng/mL
- Cmax [4, 5]: 27.12344 ng/mL
- Lambda_z [4, 5]: 0.053 h⁻¹
- MRT 0-inf_obs [4, 5]: 9.725 h
- MRT 0-inf_pred [4, 5]: 9.759 h
- MRT 0-t [4, 5]: 7.419 h
- Tlag [4, 5]: 0.000 h
- Tlast [4, 5]: 48.000 h
- Tmax [4, 5]: 1.000 h
- Vz/F_obs [4, 5]: 0.000 (mg)/(pg/ml)
- Vz/F_pred [4, 5]: 0.000 (mg)/(pg/ml)
- t½ [4, 5]: 12.982 h
- AUC 0-inf/D_obs [4, 6]: 485023.532 pg·h/mL/mg
- AUC 0-inf/D_pred [4, 6]: 479198.128 pg·h/mL/mg
- AUC 0-inf_obs [4, 6]: 160.057765 ng·h/mL
- AUC 0-inf_pred [4, 6]: 158.135382 ng·h/mL
- AUC 0-t [4, 6]: 154.059131 ng·h/mL
- AUC t-inf_obs [4, 6]: 5.998634 ng·h/mL
- AUC t-inf_pred [4, 6]: 4.076251 ng·h/mL
- AUMC 0-inf_obs [4, 6]: 1696005.242 pg/ml*h^2
- AUMC 0-inf_pred [4, 6]: 1578826.575 pg/ml*h^2
- AUMC 0-t [4, 6]: 1330359.118 pg/ml*h^2
- AUMC 0-t/0-inf_pred [4, 6]: 0.843
- AUMC t-inf_obs [4, 6]: 365646.123 pg/ml*h^2
- AUMC t-inf_pred [4, 6]: 248467.457 pg/ml*h^2
- C0 [4, 6]: 18.14454 ng/mL
- Cl_obs [4, 6]: 0.000 (mg)/(pg/ml)/h
- Clast_obs [4, 6]: 0.46304 ng/mL
- Clast_pred [4, 6]: 0.31465 ng/mL
- Cmax [4, 6]: 22.5132 ng/mL
- Lambda_z [4, 6]: 0.077 h⁻¹
- MRT 0-inf_obs [4, 6]: 10.596 h
- MRT 0-inf_pred [4, 6]: 9.984 h
- MRT 0-t [4, 6]: 8.635 h
- Tlast [4, 6]: 48.000 h
- Tmax [4, 6]: 0.500 h
- Vss_obs [4, 6]: 0.000 (mg)/(pg/ml)
- Vz_obs [4, 6]: 0.000 (mg)/(pg/ml)
- t½ [4, 6]: 8.980 h
- Mean hGH levels ([4]; GI- IV, time 0 hrs): 18144.54 ± 1619.64 pg/mL
- Mean hGH levels ([4]; GI- IV, time 0.08 hrs): 20014.87 ± 620.32 pg/mL
- Mean hGH levels ([4]; GI- IV, time 0.5 hrs): 22513.2 ± 562.85 pg/mL
- Mean hGH levels ([4]; GI- IV, time 1 hrs): 22130.7 ± 728.54 pg/mL
- Mean hGH levels ([4]; GI- IV, time 4 hrs): 14910.13 ± 2908.87 pg/mL
- Mean hGH levels ([4]; GI- IV, time 8 hrs): 1159.19 ± 226.15 pg/mL
- Mean hGH levels ([4]; GI- IV, time 24 hrs): 1495.55 ± 291.77 pg/mL
- Mean hGH levels ([4]; GI- IV, time 48 hrs): 463.04 ± 90.34 pg/mL
- Mean hGH levels ([4]; GII- Buccal/sublingual, time 0 hrs): 20672.24 ± 1140.76 pg/mL
- Mean hGH levels ([4]; GII- Buccal/sublingual, time 0.08 hrs): 18582.31 ± 1303.34 pg/mL
- Mean hGH levels ([4]; GII- Buccal/sublingual, time 0.5 hrs): 26137.66 ± 4718.88 pg/mL
- Mean hGH levels ([4]; GII- Buccal/sublingual, time 1 hrs): 27123.44 ± 382.69 pg/mL
- Mean hGH levels ([4]; GII- Buccal/sublingual, time 4 hrs): 2681.8 ± 1281.33 pg/mL
- Mean hGH levels ([4]; GII- Buccal/sublingual, time 8 hrs): 2208.63 ± 86.73 pg/mL
- Mean hGH levels ([4]; GII- Buccal/sublingual, time 24 hrs): 971.98 ± 38.36 pg/mL
- Mean hGH levels ([4]; GII- Buccal/sublingual, time 48 hrs): 256.84 ± 13.49 pg/mL
